Test system: Bacillus subtilis
Assay: cleaved RNA product abundance (RNA/gDNA barcode ratio) relative to median wild-type variant (ratio to wild type); higher = more accumulation of the downstream cleavage product
How it was run: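 Truncated aprE or tetM reporter mRNAs with barcoded RNase Y cleavage-site windows, mutagenized from oligos at a 9% error rate, sat in the B. subtilis chromosome. Cells grew in LB at 37°C from OD600 0.0003 to 0.3. Gel-selected cleaved RNA was reverse transcribed and its barcodes sequenced with those from genomic DNA, collapsing by UMI. Cleaved product abundance equals the RNA:gDNA barcode ratio per construct over the median construct with the unmutated site.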

[1] = experiment (reporter, strain, medium): exp 2b: truncated aprE reporter, strain BJT200, cleavage site: cggR-gapA (positions -7 to +36 mutated)
[2] = experiment (reporter, strain, medium): exp 8a: truncated aprE reporter, strain BJT201 with 2% xylose (RNase J1 expressed), cleavage site: glnRA (positions -5 to +31 mutated)
[3] = experiment (reporter, strain, medium): exp 4a: truncated aprE reporter, strain BJT201 with 2% xylose (RNase J1 expressed), cleavage site: cggR-gapA (positions -7 to +36 mutated)
[4] = experiment (reporter, strain, medium): exp 6: tetM reporter, strain 168, cleavage site: cggR-gapA (positions -7 to +36 mutated)

Sequence	cleaved RNA product abundance [1]	cleaved RNA product abundance [2]	cleaved RNA product abundance [3]	further results
ACAGACGAAGGAGCCGCAAAGAAGTTCTTAAGGGATGAATGATCCCTCAATATAAATATCTCTCACTTATTTAAA	0.107			
CGACATGTCCCGCTTCTTTCATTAATCCGTTAACATCTGTTTTGCTATATACATTTACCTTTTAAGAGGAGGAAT		0.25		
CGACATGTCCCGCTTCTTTCATTAATCTGTTAGCAACCGTTTTGCTATATACATTTACCTTTTAAGAGGAGGAAT		0.436		
ACAGACGAAGGAGCCGCAAAGAAGGTATTAAGGGATGAATAATCCCTCAATATAAATATCTCTCACTTATTTAAA	1.51		1.18	cleaved RNA product abundance [4]: 0.983
ACAGACGAAGGAGCCGCAAAGAAGTTATTAAAGGATGAATAATGCCTCAATATAAATATCTCTCACTTATTTAAA	0.118		0.087	
CGACATGTCCCGCTTCTTTCATTAGTCCGTTAGCAACTGTTTTGCTATATACTTTTACCTTTTAAGAGGAGGAAT		0.341		
ACAGACGAAGGAGCCGCAAAGAAGTTATTAAGGGATTAATAATGCCTCAATATAAATATCTCTCACTTATTTAAA	0.14		0.125	
ACAGACGAAGGAGCCGCAAAGAAGTTATTAAGGGATCAATAATCCCTCAATATAGATATCTCTCACTTATTTAAA	0.534			
ACAGACGAAGGAGCCGCAAACAAGTTATTAAGGGTTGAATAATCCCTCAATATAAATATCTCTCACTTATTTAAA			0.183	
ACAGACGAAGGAGCCGCAAAGAAGTTATTCATGGATGAATAATCCCTCAATATAAATATCTCTCACTTATTTAAA			0.137	
ACAGACGAAGGAGCCGCAAAGAAGTTATTAAGGGATTGAATAATCCCTCAATATAAATATCTCTCACTTATTTAA			0.788	
ACAGACGAAGGAGCCGCAAAGAATTTATTAAGGGATGAATAATCCCTAAATATAAATATCTCTCACTTATTTAAA	0.496		0.591	
ACAGACGAAGGAGCCGCAAAGAAGTTATTAACGCATGAATAATCCCTCAATATAAATATCTCTCACTTATTTAAA			0.0743	
CGACATGTCCCGCTTCTTTCATTAATCCGTTAGCAAGTGTTTTGCTATTTACATTTACCTTTTAAGAGGAGGAAT		0.163		
ACAGACGAAGGAGCCGCAAAGAAGTTATTAAGGGATGAATAATCCCTAAACATAAATATCTCTCACTTATTTAAA			0.323	
ACAGACGAAGGAGCCGCAAAGAAGTTATCAGGGGATGAATAATCCCTCAATATAAATATCTCTCACTTATTTAAA	0.323			
ACAGACGAAGGAGCCGCAAAGAAGTTATTAAGGGATGAATTATCCCTCAATATAAATATCTCTCACTTATTTAAA	0.687		0.845	cleaved RNA product abundance [4]: 0.559
ACAGACGAAGGAGCCGCAAAGAAGTTTTTAAAGGATGAATAATCCCTCAATATAAATATCTCTCACTTATTTAAA			0.192	
ACAGACGAAGGAGCCGCAAAGAAGTTATTAAGGCATGAATAATCCCTCAGTATAAATATCTCTCACTTATTTAAA			0.0715	
ACAGACGAAGGAGCCGCAAAGAAGTTATTAAGGAGTGAATAATCCCTCAATATAAATATCTCTCACTTATTTAAA			0.171	
CGACATGTCCCGCTTCTTTCATTAATCCGTTAGCAACTGTTTCGCTTTATACATTTACCTTTTAAGAGGAGGAAT		0.267		
ACAGACGAAGGAGCCGCAAAGAAGTTATTAAGGGATGCACAATCCCTCAATATAAATATCTCTCACTTATTTAAA			0.547	
ACAGACGAAGGAGCCGCAAAGAAGTTATTAAGGTATGAATAATCCCTTAATATAAATATCTCTCACTTATTTAAA	0.709		0.461	cleaved RNA product abundance [4]: 0.236

Sequence	cleaved RNA product abundance [1]	cleaved RNA product abundance [2]	cleaved RNA product abundance [3]	further results
ACAGACGAAGGAGCCGCAAAGAAGTTATTAAGGGAAGAATAATCCCTCAGTATAAATATCTCTCACTTATTTAAA	0.153		0.29	
CGACATGTCCCGCTTCTTTCATTAATACGTTTGCAACTGTTTTGCTATATACATTTACCTTTTAAGAGGAGGAAT		0.769		
ACAGACGAAGGAGCCGCAAAGAAGTTATTAAGGGATGAATAATCTGTCAATATAAATATCTCTCACTTATTTAAA	0.0956		0.123	
ACAGACGAAGGAGCCGCAAAGAAGTTATTAAGAGATGAATAATCTCTCAATATAAATATCTCTCACTTATTTAAA	0.718		0.924	
ACAGACGAAGGAGCCGCAAAGAAGTTATTAATGCATGAATAATCCCTCAATATAAATATCTCTCACTTATTTAAA	0.0867		0.0823	
ACAGACGAAGGAGCCGCAAAGAAGTTAATAAGGGATGACTAATCCCTCAATATAAATATCTCTCACTTATTTAAA			0.308	
CGACATGTCCCGCTTCTTTCATTAATCAGTTAGAAACTGTTTTGCTATATACATTTACCTTTTAAGAGGAGGAAT		0.328		
CGACATGTCCCGCTTCTTTCATTACTCCGTTAGCAACTGTTTTGCTATATACATATACCTTTTAAGAGGAGGAAT		0.767		
CGACATGTCCCGCTTCTTTCATTAATCCTTTAGCAACTGTTTTGCGATATACATTTACCTTTTAAGAGGAGGAAT		0.366		
CGACATGTCCCGCTTCTTTCATTAATCAGTTAGCAACTGTTTTGCTATACACATTTACCTTTTAAGAGGAGGAAT		0.225		
ACAGACGAAGGAGCCGCAAAAAAGTTATTAAGGGATGAATAATCCCTCAATACAAATATCTCTCACTTATTTAAA			0.0755	
ACAGACGAAGGAGCCGCAAAGAAGTTATTAAGTGACGAATAATCCCTCAATATAAATATCTCTCACTTATTTAAA			0.0518	
ACAGACGAAGGAGCCGCAAAGAAGTTATTAAGGGATGAATAATTCCTCAATATAAATTTCTCTCACTTATTTAAA			0.625	
CGACATGTCCCGCTTCTTTCATTAATCCGTTAGCAACTGTTTTGCTATATACATATACGTTTTAAGAGGAGGAAT		1.29		
CGACATGTCCCGCTTCTTTCATTATTCCGTTAGCCACTGTTTTGCTATATACATTTACCTTTTAAGAGGAGGAAT		0.595		
CGACATGTCCCGCTTCTTTCATTAATGCGTTAGCAAATGTTTTGCTATATACATTTACCTTTTAAGAGGAGGAAT		0.927		
ACAGACGAAGGAGCCGCAAAGAAGTTATTAAGGGATGAAAAATCCTTCAATATAAATATCTCTCACTTATTTAAA	0.355		0.505	
ACAGACGAAGGAGCCGCAAAGAAGTTATTAAGGGATGTGTAATCCCTCAATATAAATATCTCTCACTTATTTAAA			0.526	
ACAGACGAAGGAGCCGCAAAGAAGTTATTAAGTGATGAATAATCCCTCATTATAAATATCTCTCACTTATTTAAA	0.0978		0.151	
CGACATGTCCCGCTTCTTTCATTAATCCGTTAGCAACTGTTTTGCTATTTACATCTACCTTTTAAGAGGAGGAAT		0.276		
CGACATGTCCCGCTTCTTTCATTAATCCGTTAGCAACTGTATTGCTATATACATTTAACTTTTAAGAGGAGGAAT		1.13		
ACAGACGAAGGAGCCGCAAAGAATTTATTAAGGGATGCATAATCCCTCAATATAAATATCTCTCACTTATTTAAA	0.535		0.597	
ACAGACGAAGGAGCCGCAAAGAAGTTATTAAGGGATGGATAATCCCTCAATATAAAAATCTCTCACTTATTTAAA			0.356	
